The values below come from patent US20150132859A1.

The target of experiment [1] is EcSS-TpN17-Bi(DDS) (Treponema pallidum (TpN17 part); E. coli (SlyD part)). As to the kind of experiment: DAGS ECL; detection PmSS-TpN17-Ru; EcSlyD-VcLp15 0 ug/ml in R1.
The target of experiment [2] is EcFkpA-TpN17-Bi(DDS) (Treponema pallidum (TpN17 part); E. coli (FkpA part)). Description: DAGS ECL; detection EcSkp-TpN17-Ru; EcSlyD-VcLp15 0 ug/ml in R1.
In experiment [3] the target is EcSS-TpN17-Bi(DDS) (Treponema pallidum (TpN17 part); E. coli (SlyD part)). As to the kind of experiment: DAGS ECL; detection PmSS-TpN17-Ru; competitor EcSlyD-VcLp15 0.1 ug/ml in R1.
Experiment [4] has the same target. Description: DAGS ECL; detection PmSS-TpN17-Ru; competitor EcSlyD-VcLp15 0.2 ug/ml in R1.
The target is the same in experiment [5]. As to the kind of experiment: DAGS ECL; detection PmSS-TpN17-Ru; competitor EcSlyD-VcLp15 0.3 ug/ml in R1.
The target is the same in experiment [6]. As to the kind of experiment: DAGS ECL; detection PmSS-TpN17-Ru; competitor EcSlyD-VcLp15 0.5 ug/ml in R1.
Experiment [7] has the same target. As to the kind of experiment: DAGS ECL; detection PmSS-TpN17-Ru; competitor EcSlyD-VcLp15 1.0 ug/ml in R1.
Experiment [8] addresses EcFkpA-TpN17-Bi(DDS) (Treponema pallidum (TpN17 part); E. coli (FkpA part)). Description: DAGS ECL; detection EcSkp-TpN17-Ru; competitor EcSlyD-VcLp15 0.1 ug/ml in R1.
For experiment [9] the target is unchanged. Description: DAGS ECL; detection EcSkp-TpN17-Ru; competitor EcSlyD-VcLp15 0.2 ug/ml in R1.
For experiment [10] the target is unchanged. As to the kind of experiment: DAGS ECL; detection EcSkp-TpN17-Ru; competitor EcSlyD-VcLp15 0.3 ug/ml in R1.
For experiment [11] the target is unchanged. Description: DAGS ECL; detection EcSkp-TpN17-Ru; competitor EcSlyD-VcLp15 0.5 ug/ml in R1.
Experiment [12] shares this target. Description: DAGS ECL; detection EcSkp-TpN17-Ru; competitor EcSlyD-VcLp15 1.0 ug/ml in R1.
Experiment [13] deals with EcSS-TpN17-Bi(DDS) (Treponema pallidum (TpN17 part); E. coli (SlyD part)). Description: DAGS ECL; detection PmSS-TpN17-Ru; EcSkp-VcLp15 0 ug/ml in R1.
For experiment [14], the target named is EcFkpA-TpN17-Bi(DDS) (Treponema pallidum (TpN17 part); E. coli (FkpA part)). Description: DAGS ECL; detection EcSkp-TpN17-Ru; EcSkp-VcLp15 0 ug/ml in R1.
Experiment [15] concerns the target EcSS-TpN17-Bi(DDS) (Treponema pallidum (TpN17 part); E. coli (SlyD part)). As to the kind of experiment: DAGS ECL; detection PmSS-TpN17-Ru; competitor EcSkp-VcLp15 0.1 ug/ml in R1.
For experiment [16] the target is unchanged. Description: DAGS ECL; detection PmSS-TpN17-Ru; competitor EcSkp-VcLp15 1.0 ug/ml in R1.
Experiment [17] addresses EcFkpA-TpN17-Bi(DDS) (Treponema pallidum (TpN17 part); E. coli (FkpA part)). Description: DAGS ECL; detection EcSkp-TpN17-Ru; competitor EcSkp-VcLp15 0.1 ug/ml in R1.
Experiment [18] has the same target. Description: DAGS ECL; detection EcSkp-TpN17-Ru; competitor EcSkp-VcLp15 1.0 ug/ml in R1.

For Trina #0647, the counts in [1] worked out at 623 counts; in experiment [2] it was 774 counts; in [3], 614 counts; in experiment [4], 606 counts; in experiment [5], 620 counts; in experiment [6], 618 counts. Moreover, the counts was determined as 623 counts in experiment [7]; 786 counts in experiment [8]; 764 counts in experiment [9]; 773 counts in experiment [10]; 762 counts in [11]; 742 counts in [12].
On to Trina #0642, for which the counts in [13] turned out to be 673 counts; in experiment [1], 657 counts; in [14], 750 counts; in [2], 778 counts; in experiment [15], 673 counts; in [16], 632 counts. Moreover, the counts worked out at 613 counts in [3]; 638 counts in experiment [4]; 626 counts in experiment [5]; 623 counts in experiment [6]; 610 counts in [7]; 757 counts in [17]. Further, the counts is 744 counts in [18]; 716 counts in experiment [8]; 722 counts in [9]; 698 counts in experiment [10]; 698 counts in experiment [11]; 661 counts in experiment [12].
As for Trina #0646, the counts in [13] stood at 651 counts; in experiment [1], 634 counts; in experiment [14] it was 840 counts; in [2], 797 counts; in experiment [15] it was 659 counts; in experiment [16], 646 counts. Further, the counts is 617 counts in experiment [3]; 634 counts in [4]; 628 counts in [5]; 621 counts in experiment [6]; 613 counts in experiment [7]; 847 counts in experiment [17]. Moreover, the counts in [18] was 815 counts; in [8], 795 counts; in [9], 817 counts; in experiment [10], 802 counts; in [11], 784 counts; in [12], 784 counts.
